Literature values in publication PMC9694239.

Target: CNG channel beta subunit CaM1 peptide CaM1 (Homo sapiens) (UniProt Q14028)
Sequence (Q14028 whole entry, looked up, tested part not stated): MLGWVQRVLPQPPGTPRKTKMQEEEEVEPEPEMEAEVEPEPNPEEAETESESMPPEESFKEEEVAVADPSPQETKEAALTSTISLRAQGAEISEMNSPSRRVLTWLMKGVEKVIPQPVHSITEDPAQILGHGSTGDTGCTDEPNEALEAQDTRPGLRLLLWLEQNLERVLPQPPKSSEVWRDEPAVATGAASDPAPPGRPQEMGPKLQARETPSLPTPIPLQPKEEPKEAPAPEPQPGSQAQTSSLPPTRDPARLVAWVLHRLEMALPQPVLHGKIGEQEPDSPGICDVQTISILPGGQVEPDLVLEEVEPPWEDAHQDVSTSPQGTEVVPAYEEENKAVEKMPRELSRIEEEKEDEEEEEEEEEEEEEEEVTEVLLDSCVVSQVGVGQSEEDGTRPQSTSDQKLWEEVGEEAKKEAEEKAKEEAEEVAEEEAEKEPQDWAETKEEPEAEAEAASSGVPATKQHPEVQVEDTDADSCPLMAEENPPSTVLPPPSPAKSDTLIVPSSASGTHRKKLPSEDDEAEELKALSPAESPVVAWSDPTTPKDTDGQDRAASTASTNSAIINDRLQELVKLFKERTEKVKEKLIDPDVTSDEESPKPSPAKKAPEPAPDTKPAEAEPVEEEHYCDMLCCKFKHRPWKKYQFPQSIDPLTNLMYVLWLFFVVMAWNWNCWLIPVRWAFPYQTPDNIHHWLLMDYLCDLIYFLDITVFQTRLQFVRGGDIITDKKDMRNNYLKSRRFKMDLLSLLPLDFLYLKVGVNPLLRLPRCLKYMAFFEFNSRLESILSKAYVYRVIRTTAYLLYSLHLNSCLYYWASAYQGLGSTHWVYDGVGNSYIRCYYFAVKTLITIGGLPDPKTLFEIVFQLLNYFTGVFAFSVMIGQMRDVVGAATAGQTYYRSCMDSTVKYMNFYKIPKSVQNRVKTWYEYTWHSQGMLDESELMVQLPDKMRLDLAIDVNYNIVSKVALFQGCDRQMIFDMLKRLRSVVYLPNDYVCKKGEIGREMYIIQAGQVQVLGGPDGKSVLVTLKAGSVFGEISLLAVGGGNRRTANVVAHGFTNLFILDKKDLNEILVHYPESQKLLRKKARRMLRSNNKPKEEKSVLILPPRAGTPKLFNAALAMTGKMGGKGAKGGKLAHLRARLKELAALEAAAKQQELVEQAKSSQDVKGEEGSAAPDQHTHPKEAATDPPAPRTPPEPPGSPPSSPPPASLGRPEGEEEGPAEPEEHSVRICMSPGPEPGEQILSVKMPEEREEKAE

- Kd: 5 µM
Substance: Calmodulin N-lobe (from UniProt P0DP23)
